Measured values: publication PMC9993118

Assays:
Settings in all cases: EMSA: Pierce EMSA kit conditions, 15 min, 7.5% polyacrylamide gel at room temperature; footprinting: 20 mM Tris-HCl pH 7.5, 80 mM NaCl, 1 mM EDTA, 100 ug/ml …
Lrp [1] = target: T1, Lrp (UniProt P0ACJ0); assay: EMSA
T1 sequence: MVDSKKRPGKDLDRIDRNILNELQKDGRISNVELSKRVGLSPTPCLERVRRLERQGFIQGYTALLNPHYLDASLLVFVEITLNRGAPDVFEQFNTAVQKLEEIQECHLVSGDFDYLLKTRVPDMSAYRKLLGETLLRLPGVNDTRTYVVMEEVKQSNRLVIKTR

Fis (Escherichia coli) = target: T2, Fis (Escherichia coli) (UniProt P0A6R3); assay: EMSA
T2 sequence: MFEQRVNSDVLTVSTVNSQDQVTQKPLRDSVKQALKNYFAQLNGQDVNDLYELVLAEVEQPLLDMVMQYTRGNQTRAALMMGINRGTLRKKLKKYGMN

Lrp [2] = target: T1, Lrp; assay: competition EMSA

Row | Sequence | binding (Lrp [1]) | binding (Fis (Escherichia coli)) | binding (Lrp [2])
1 | CCCCCAAAAGATGAAACATTTGGGGCCATTTTGACTCATAGAGGAAAGCATCGCGGACAAACTTTTTCAGTTTATTTGTTGGCTTAATATTCTATTGTTATCTTTATTTATAGATGTTTATATTGCATGAGGTGG (double strand) [fimS 135 bp probe (wild type)] | binds | binds | binds
2 | CCACCTCATGCAATATAAACATCTATAAATAAAGATAACAATAGAATATTAAGGGGTTAGCTAAACTGAAAAAGTTTGTCCGCGATGCTTTCCTCTATGAGTCAAAATGGCCCCAAATGTTTCATCTTTTGGGGG (double strand) [fimS 135 bp probe, Fis site disrupted] | binds more weakly | binds more weakly | 
